Experimental data taken from patent US11773143B2, “Conformational epitopes in respiratory syncytial virus G protein central conserved region” (priority 2017, dated 2023).
Where no end group is shown, it is not given here.

Assays:
CX3CR1 = target: T1, CX3CR1 (Homo sapiens, UniProt P49238); test: Chemotaxis assay: RSV G modulation of CX3CR1, receptor-mediated chemotaxis of THP-1 cells (transwell); assay type: cell-based; conditions: for Chemotactic activity: RSV G (CCR) variants, chemotaxis assay of Example 4, duplicate assays, standard deviations in parentheses
T1 construct: THP-1 cells (a human leukemia monocytic cell line) washed twice and suspended in serum-free RPMI 1640 media; endogenous in cells; host or cells: THP-1
T1 sequence (P49238 1-355): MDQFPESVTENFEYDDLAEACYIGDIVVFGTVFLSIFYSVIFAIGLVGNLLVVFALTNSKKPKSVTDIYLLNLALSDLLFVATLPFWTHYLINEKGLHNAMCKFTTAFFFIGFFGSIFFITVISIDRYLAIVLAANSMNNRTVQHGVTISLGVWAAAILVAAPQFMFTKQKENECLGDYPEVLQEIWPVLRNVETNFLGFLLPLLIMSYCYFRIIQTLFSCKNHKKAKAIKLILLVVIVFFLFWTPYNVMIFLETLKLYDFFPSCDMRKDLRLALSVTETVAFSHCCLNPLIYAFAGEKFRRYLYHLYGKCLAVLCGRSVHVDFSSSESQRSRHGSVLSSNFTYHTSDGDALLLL
Description: An in vitro assay for RSV G modulation of CX3CR1 measures receptor mediated chemotaxis of human monocyte THP-1 cells {Tripp, R. A. et al. Nature Immunology (2001) 2:732-738}. […]
In more detail, the assay was performed using a transwell insert plate with an 8 µm pore size. Approximately 2 million log-phase THP-1 cells (a human leukemia monocytic cell line) washed twice and suspended in serum-free RPMI 1640 media were added to the upper chamber of the insert plate. Negative control was serum-free media alone to which serum-free media containing 25 nM mAb was added to the lower chamber. As a positive control, media containing 10% FBS was added to the lower chamber. RSV G[ecto] or RSV G[161-197] samples were added to the lower chamber at a final concentration of 5 nM in serum-free media. For samples with RSV G[161-197] and mAbs, RSV G[161-197] was pre-incubated with 5-molar excess mAb for 20 min at room temperature, and then added to serum-free media in the lower chamber, for a final concentration of 5 nM RSV G[161-197] and 25 nM mAb. For samples with anti-CX3CR1 antibody, 2 μL 1 mg/mL anti-CX3CR1 rabbit polyclonal antibody (ThermoFisher Scientific Cat #PA5-19910) was incubated with THP-1 cells for 30 minutes in the upper chamber before being placed into the well. The assembled plates were incubated in a CO2 incubator at 37° C. for 5 h. Cells migrated to the lower chamber were counted, and the chemotactic indices were determined by comparing the fold-increase in cell migration toward the chemoattractant to cell migration toward serum-free media alone. Experiments were performed in at least four biological replicates.
Determination of structures of RSV G CCR protein in complex with the high affinity antibodies 2D10 and 3D3 shown in FIG. 4A-B provide a roadmap to design RSV G immunogens to disable CX3CR1 binding without disrupting the ability to generate high-affinity mAb epitopes. Specifically, six highly conserved amino acids have been identified whose side-chains make no molecular contacts with mAbs 3D3 and 2D10, so they can be substituted without impacting generation of high affinity mAbs similar to these mAbs. These residues are therefore candidates for substitution in order to interfere with binding to CX3CR1. Generally, providing an alteration in charge (charge switch) and/or a change in size or shape resulting in a steric hinderance (steric clash) would be expected to result in a negative impact on such binding. […] Six representative mutants have been tested for their impact on CX3CR1 function as measured by the chemotaxis assay described in Example 4. Table 4 summarizes the results of duplicate assays (with standard deviations) using the standard one letter abbreviations for the amino acid at the indicated residue.

RSV [1] = conditions: mice, day 5 post-inoculation, vs isotype control; cited from earlier work
RSV G protein = RSV G protein (Human respiratory syncytial virus A, UniProt P03423); conditions: read-out: affinity; mAb binding to RSV G protein; cited from earlier work
Chain of RSV G protein (P03423 whole entry): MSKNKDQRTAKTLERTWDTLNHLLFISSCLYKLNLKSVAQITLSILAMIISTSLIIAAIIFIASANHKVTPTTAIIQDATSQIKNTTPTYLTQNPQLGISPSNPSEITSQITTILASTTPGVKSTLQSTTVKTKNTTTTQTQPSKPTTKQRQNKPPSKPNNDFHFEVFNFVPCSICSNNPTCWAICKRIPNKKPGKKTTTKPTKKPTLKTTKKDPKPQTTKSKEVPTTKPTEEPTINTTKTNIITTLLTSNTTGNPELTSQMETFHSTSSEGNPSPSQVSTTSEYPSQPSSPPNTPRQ

RSV [2] = conditions: in vitro; cited from earlier work

## K192→E + K193 →E: RSV G (CCR) double variant, charge switch (NDFHFEVFNFVPCSICSNNPTCWAICKRIPNEEPGKK; not fully specified (bridges); cysteine pairing not given here)
CX3CR1
  Chemotactic activity: 2.5 (0.7)

## Wild type RSV G (CCR) (NDFHFEVFNFVPCSICSNNPTCWAICKRIPNKKPGKK; not fully specified (bridges); cysteine pairing not given here)
CX3CR1
  Chemotactic activity: 6.2 (0.7)

## S177→R: RSV G (CCR) variant, substitution of arginine for serine at position 177 (NDFHFEVFNFVPCSICRNNPTCWAICKRIPNKKPGKK; not fully specified (bridges); cysteine pairing not given here)
CX3CR1
  Chemotactic activity: 0.9 (0.2)

## E166→K: RSV G (CCR) variant, E166 to K, charge switch (NDFHFKVFNFVPCSICSNNPTCWAICKRIPNKKPGKK; not fully specified (bridges); cysteine pairing not given here)
CX3CR1
  Chemotactic activity: 1.6 (0.7)

## E166→K + K187 →E: RSV G (CCR) double variant, charge switch (NDFHFKVFNFVPCSICSNNPTCWAICERIPNKKPGKK; not fully specified (bridges); cysteine pairing not given here)
CX3CR1
  Chemotactic activity: 1.8 (0.1)

## H164→Y: RSV G (CCR) variant, H164 to Y, steric clash (NDFYFEVFNFVPCSICSNNPTCWAICKRIPNKKPGKK; not fully specified (bridges); cysteine pairing not given here)
CX3CR1
  Chemotactic activity: 3.8 (0.4)

## S177→W: RSV G (CCR) variant, S177 to W, steric clash (NDFHFEVFNFVPCSICWNNPTCWAICKRIPNKKPGKK; not fully specified (bridges); cysteine pairing not given here)
CX3CR1
  Chemotactic activity: 1.2 (0.4)

## Synagis: humanized mouse mAb against RSV F protein
RSV [1]
  effect on total BAL cells: did not reduce total BAL cells

B1: 3D3: high affinity, broadly neutralizing human mAb binding RSV G protein CCR (antibody, V domains shown)
VH: EEQLVESGGGLVQPGRSLRLSCVGSGLRFEEHAMHWVRQAPGRGLEWVSGISWNSGSVGYADSVKGRFTTSRDNAKDILFLEMNTLRSEDTALYFCAIMVATTKNDFHYYKDVWGKGTTVTVSS
VL: QIVLTQSPATLSLSPGERATLSCRASQSVSNHLAWYQQKPGQAPRLLIYETSNRATGIPPRFSGSGSGTDFTLTISSLEPEDFAVYYCQQRNNWYTFGQGTKLEIK
RSV G protein
  Kd: 1.1 pM
CX3CR1; THP-1 cells, level comparable to anti-CX3CR1 polyclonal serum
  Blocking of RSV G[161-197]-induced chemotaxis by pre-incubation with mAb: blocked
RSV [2]
  viral neutralizing activity: broad neutralizing activity
